The text below walks through data of US20240026383A1 (priority 2020, published 2024).

The subject of one series is FlgM gene of P. putida. The series is described as follows: Knock-out of the FlgM gene by homologous recombination with tagged-intron-FnCas12a. Type of series: cell-based, Pseudomonas putida. The settings on record: T crRNA, 2 mM theophylline. The method, then: Further genome editing experiments were conducted to knock-out the FlgM gene of P. putida. A repair template (1125 bp) was included on the plasmids bearing approximately 500 bp homologous sides upstream and downstream of the FlgM gene. The repair template was introduced to either of the four tagged-intron-FnCas12a variants along with the T crRNA for counterselection or the NT crRNA as a control. Plasmids were transformed to P. putida through electroporation and the transformed cells were recovered in LB medium for 2 hours before plating on LB agar plates containing 50 μg ml^−1 kanamycin and 2 mM theophylline. Plates were incubated at 30° C. overnight and formed colonies were screened through colony PCR for the knock-out of the FlgM gene. […] Tag1 to Tag4 represent the four different Tagged-intron variant plasmids which contain the T (targeting) or the NT (non-targeting) crRNA. […] On the contrary, transformants bearing plasmids with an NT crRNA were all WT.

Another series has as its system LacZa of E. coli MG1655. The series is described as follows: FnCas12a targeting assay with Tagged-T4 td intron variants (CFU drop plating). Type of series: cell-based. The conditions noted are these: T crRNA (LacZ), selection medium with 2 mM theophylline. An excerpt: Four different intron variants (as shown previously in FIG. 8), referred to as “Tag1”, “Tag2”, etc. (Tag1: −4P, −5P, −6P; Tag2: −4W, […] −4W, −5W, −6P; Tag4: −4M, −5P, −6P) are inserted directly after the start codon of the GOI (FnCas12a gene). The 5′ exon sequences of the four different tags are indicated: Tag1: TCCtcaGGT (SEQ ID NO: 7); Tag2: TCCtcgGGT (SEQ ID NO: 8); Tag3: TCCttgGGT (SEQ ID NO: 9); Tag4: TCCtctGGT (SEQ ID NO: 10). The 3′ exon sequence is conserved amongst the 4 different tags and indicated as CTA (SEQ ID NO: 12). The amino acids corresponding to the Tag sequences are indicated with capital bold letters above the Tagged-introns. Intron-less (wild-type) FnCas12a was used as a reference for comparison. Efficiency of targeting of the different Tagged-T4 td intron variants was assessed by using either a LacZa targeting (T) or a non-targeting (NT) crRNA and by comparing the amount of colony forming units (CFUs) of transformed E. coli MG1655 per μg of plasmid used (CFUs μg^−1). CFU was determined by the number of colonies observed.
Electrocompetent E. coli MG1655 were transformed (2.5 kV, 200 Ω, 25 μF) with 10 ng μL^−1 of the respective plasmid and recovered for 1 hour in 500 μL LB medium [10 g L^−1 tryptone (Oxoid), 5 g L^−1 yeast extract (BD), 10 g L^−1 NaCl (Acros)] at 37° C. Then, the recovered culture was serially diluted and drop plated on selective (50 μg mL^−1 kanamycin) LB agar plates in the presence or absence of 2 mM theophylline. The agar plates were incubated at 30° C. for 24 hours and the CFUs were counted.
E. coli MG1655 was transformed with a series of plasmids (listed in Table 4) and serially diluted and drop plated on selective (kanamycin) LB media with or without 2 mM theophylline. […] The effect of the CFU reduction was more apparent for the Tag4-intron where colonies could only be observed at the 10° dilution, followed by Tag3-intron (10^−1) then Tag2-intron (10^−2) and finally Tag1-intron ([…]).

The subject of series [1] is lacZ gene from E. coli interrupted with the T4 td intron. The experiment in a line: LacZ colorimetric (β-galactosidase) assay of T4 td intron exon variants. Type of series: cell-based. The text has this: To investigate the effect of the flanking regions of the T4 td intron on its splicing efficiency and on the expression of the target gene, a series of constructs were made containing the lacZ gene from E. coli with the intron in between amino acids D6 and S7 (see FIG. 5). These amino acids were identified because insertion at this location would be least likely to impact on the structure of the protein. The lacZ gene was used because its functional expression can be easily monitored by a colorimetric assay and because of its high tolerance for modification at the 5′ end. LacZa is interrupted with the T4 td intron and therefore non-functional. Upon self-splicing and excision of the intron, the ORF of LacZa is complete and functional. LacZa encodes for β-galactosidase which is able to hydrolyse ortho-nitrophenyl-β-D-galactopyranoside (ONPG) into β-D-galactose and ortho-nitrophenol (ONP). ONP can be measured through colorimetric assays. Mutations were made by PCR in the 5′ flank as depicted in Table 1.
All position numbers are relative to the 5′ splice site. […] Since there is the possibility of base pairing, the effect of disallowing base pairing was assessed. If there is no interaction between position −7 and the Internal Guide Sequence (IGS), (the sequence at P1 that forms the base pairing with the 5′ exon sequence), and no difference in LacZ activity should be observed. The −7 position was mutated (while all other nucleotides remained WT) to form either a wobble pair or a mismatch. The self-splicing activity of the three intron variants for β-galactosidase activity was assessed after overnight growth.
This is similar to the situation with the −7 position. Therefore, point mutations at the +296 position of the T4 td intron were made to see if they might impact on the splicing activity of the intron. The WT +296 position (mismatch) was mutated by PCR (Table 2) to form either a pair or a wobble pair with the P1 loop. All mutants were assayed for β-galactosidase activity after overnight growth.
This investigated the effect of altering positions −4 to −6 in all possible combinations of pair (P), mismatch (M) and wobble pair (W) (if applicable) whilst preserving all the other bases as WT. With reference to FIGS. 1 and 4A, positions −4 to −6 is GUU (positions −6 to −4 are UUG) and these pair or interact with UGA at positions +12 to +14, respectively.
In FIG. 8 the wild type intron (*) is (sequences shown from 5′ to 3′) PWM/(UUG) and set to 1. All other LacZ activities are a fraction of the wild type activity. PMP reads either UAA or UGA both being stop codons (**). […] A wobble base pair at position −5 negates to a large extent the effect that −6 and −4 have on the splicing. […]

In series [2] the test system is LacZ gene of E. coli MG1655. The series is described as follows: SIBR-Cas genome editing (HR and CRISPR-Cas counterselection) of LacZ. The settings on record: for unbiased editing efficiency (LacZ deletion by PCR of randomly selected colonies): X-gal omitted from the medium; for editing efficiency: percentage of white colonies from total CFUs mL-1: blue/white screening, LacZ targeting, induced after 1 hour recovery. Type of series: cell-based. The text has this:
For efficient genome editing in bacteria, HR should precede CRISPR-Cas counterselection. To assess whether tight control over CRISPR-Cas targeting could bolster the efficiency of CRISPR-Cas mediated genome editing by allowing more time for HR to occur, we used SIBR-Cas and targeted the LacZ gene of E. coli MG1655 for knock-out through HR and CRISPR-Cas counterselection using a blue/white screening colony assay. To facilitate HR, we added 500 bp up- and down-stream homology arms to the plasmids expressing the four SIBR-Cas (Int1-4) and WT-FnCas12a variants that target the LacZ gene. After 1 hour recovery, we induced the expression of the SIBR-Cas variants to counterselect the WT from the mutant colonies.
Since disruption of LacZ can also be achieved through non-HR mediated approaches (spontaneous mutations or occasional error-prone DNA repair following DNA cleavage by Cas12a), not all gene deletions can be screened phenotypically. Therefore, we repeated our experiment, but X-gal was omitted from the medium to eliminate the possibility of false-positives. Randomly selected colonies that were obtained were screened by PCR for LacZ deletion showing a 0%, 0%, 29% and 38% editing efficiency for Int1, Int2, Int3 and Int4 SIBR-Cas variants, respectively (FIG. 24C). […] The observed decrease in editing efficiency (compared to the blue/white screening) might be attributed to spontaneous LacZ mutations that escape CRISPR-Cas counterselection. Nevertheless, a high editing efficiency (38%) was observed when SIBR-Cas Int4 was used without the use of recombinases or any other complex systems.

Several values for one entry are separate records, joined by “and”; a condition that tells them apart may be missing. Equal values may be shown once. Read-outs that look alike come from different tables or passages of the source.

B1: Tag1: theophylline dependent T4 td intron after ATG of FnCas12a; −4P, −5P, −6P; 5′ exon TCCtcaGGT; SEQ ID NO: 49 (nucleic acid)
DNA: TCCTCAGGTTAATTGAGGCCTGAGTATAAGGTGACTTATACTTGTAATCTATCTAAACGGGGAACCTCTCTAGTAGACAATCCCGTGCTAAATTGATACCAGCATCGTCTTGATGCCCTTGGCAGCATAAATGCCTAACGACTATCCCTTTGGGGAGTAGGGTCAAGTGACTCGAAACGATAGACAACTTGCTTTAACAAGTTGGAGATATAGTCTGCTCTGCATGGTGACATGCAGCTGGATATAATTCCGGGGTAAGATTAACGACCTTATCTGAACATAATGCTA
modifications: Tag1 T4 td intron with the theophylline aptamer
B1: the “editing efficiency (FlgM knock-out by colony PCR)” value with FlgM gene of P. putida is listed as 0%. Besides, the “dilution at which colonies could be observed” value (shortened to “dilution”) with LacZa of E. coli MG1655 is listed as 10^−2. Further, in series [1], the “self-splicing activity ranking of the Tag/Int variants” value is “most “tight””. Moreover, in series [1] (listed as Int1), the “self-splicing activity ranking of the Tag/Int variants” value is recorded as “worst”. For the same molecule, in series [2], the “unbiased editing efficiency (LacZ deletion by PCR of randomly selected colonies)” value worked out at 0% and the “editing efficiency: percentage of white colonies from total CFUs mL-1” value (“editing efficiency: percentage” for short) was 0%.

B2: Tag3: theophylline dependent T4 td intron tag; −4W, −5W, −6P; 5′ exon TCCttgGGT; SEQ ID NO: 47 (nucleic acid)
DNA: TCCTTGGGTTAATTGAGGCCTGAGTATAAGGTGACTTATACTTGTAATCTATCTAAACGGGGAACCTCTCTAGTAGACAATCCCGTGCTAAATTGATACCAGCATCGTCTTGATGCCCTTGGCAGCATAAATGCCTAACGACTATCCCTTTGGGGAGTAGGGTCAAGTGACTCGAAACGATAGACAACTTGCTTTAACAAGTTGGAGATATAGTCTGCTCTGCATGGTGACATGCAGCTGGATATAATTCCGGGGTAAGATTAACGACCTTATCTGAACATAATGCTA
modifications: Tag3 T4 td intron with the theophylline aptamer
On to B2, for which the “editing efficiency (FlgM knock-out by colony PCR)” value in the series on FlgM gene of P. putida came to 36.6%. Moreover, the “dilution” value in the series on LacZa of E. coli MG1655 is on record as 10^−1. Further, in series [2] (listed as Int3), the “unbiased editing efficiency (LacZ deletion by PCR of randomly selected colonies)” value was 29%±18.04% and 29%; the “editing efficiency: percentage” value is 49%±8.75% and 49%.

B3: Tag4: theophylline dependent T4 td intron tag; −4M, −5P, −6P; 5′ exon TCCtctGGT; SEQ ID NO: 48 (nucleic acid)
DNA: TCCTCTGGTTAATTGAGGCCTGAGTATAAGGTGACTTATACTTGTAATCTATCTAAACGGGGAACCTCTCTAGTAGACAATCCCGTGCTAAATTGATACCAGCATCGTCTTGATGCCCTTGGCAGCATAAATGCCTAACGACTATCCCTTTGGGGAGTAGGGTCAAGTGACTCGAAACGATAGACAACTTGCTTTAACAAGTTGGAGATATAGTCTGCTCTGCATGGTGACATGCAGCTGGATATAATTCCGGGGTAAGATTAACGACCTTATCTGAACATAATGCTA
modifications: Tag4 T4 td intron with the theophylline aptamer
For B3, the “dilution” value in the series on LacZa of E. coli MG1655 was 10°. Besides, in series [1], the “self-splicing activity ranking of the Tag/Int variants” value is on record as “most “loose””. For the same molecule, in series [1] (listed as Int4), the “self-splicing activity ranking of the Tag/Int variants” value is given as “best splicer”. Besides, in series [2] (listed as Int4), the “unbiased editing efficiency (LacZ deletion by PCR of randomly selected colonies)” value was 38%±6.41% and 38%; the “editing efficiency: percentage” value is 80%±5.57% and 80%.

B4: Tag2: theophylline dependent T4 td intron tag; −4W, −5P, −6P; 5′ exon TCCtcgGGT; SEQ ID NO: 46 (nucleic acid)
DNA: TCCTCAGGTTAATTGAGGCCTGAGTATAAGGTGACTTATACTTGTAATCTATCTAAACGGGGAACCTCTCTAGTAGACAATCCCGTGCTAAATTGATACCAGCATCGTCTTGATGCCCTTGGCAGCATAAATGCCTAACGACTATCCCTTTGGGGAGTAGGGTCAAGTGACTCGAAACGATAGACAACTTGCTTTAACAAGTTGGAGATATAGTCTGCTCTGCATGGTGACATGCAGCTGGATATAATTCCGGGGTAAGATTAACGACCTTATCTGAACATAATGCTA
modifications: Tag2 T4 td intron with the theophylline aptamer
As to B4, in the series with FlgM gene of P. putida, the “editing efficiency (FlgM knock-out by colony PCR)” value stood at 39.3%. Besides, the “dilution” value with LacZa of E. coli MG1655 is recorded as 10^−2. In addition, the “unbiased editing efficiency (LacZ deletion by PCR of randomly selected colonies)” value in series [2] was found to be 0%. Besides, the “editing efficiency: percentage” value in series [2] (listed as Int2) was 1%±0.35% and 1%.
